Test results reported in the supplement of paper PMC5998384.

Assays:
HeLa Kyoto [1] = assay: thermal stability score vs G1/S (z-score of summed log2 fold changes over temperatures); higher = more thermally stable than in G1/S
HeLa Kyoto [2] = assay: melting temperature (median over replicates), in situ; higher = more thermally stable
HeLa Kyoto [3] = assay: solubility change mitosis vs G1/S (difference of NP-40 vs SDS log2 ratios) (log2 ratio difference); higher = more soluble in mitosis
HeLa Kyoto [4] = assay: solubility in G1/S (NP-40 vs SDS abundance) (log2 ratio); higher = more soluble; settings: cell cycle stage: G1/S
[5] = cell cycle stage: early G1 (4.5 h after nocodazole release)
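For melting temperature (median over replicates), in situ in this document: HeLa Kyoto cells synchronized by double thymidine or nocodazole block, proteins quantified by TMT10plex mass spectrometry, three independent biological replicates.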
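For solubility change mitosis vs G1/S (difference of NP-40 vs SDS log2 ratios) in this document: synchronized HeLa Kyoto cells (double thymidine block for G1/S, nocodazole release for mitosis), protein amounts in NP-40 versus SDS lysates quantified by mass spectrometry, three biological replicates.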
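For solubility in G1/S (NP-40 vs SDS abundance) in this document: HeLa Kyoto cells arrested at G1/S by double thymidine block, proteins quantified by TMT10plex mass spectrometry in mild NP-40 versus SDS extracts, three biological replicates.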
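For thermal stability score vs G1/S (z-score of summed log2 fold changes over temperatures) in this document: synchronized HeLa Kyoto cells, proteins quantified by TMT10plex mass spectrometry, three biological replicates, mitosis taken 0.5 h after nocodazole release, G1/S directly after double thymidine block.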

## MADREGGCAAGRGRELEPELEPGPGPGSALEPGEEFEIVDRSQLPGPGDLRSATRPRAAEGWSAPILTLARRATGNLSASCGSALRAAAGLGGGDSGDGTARAASKCQMMEERANLMHMMKLSIKVLLQSALSLGRSLDADHAPLQQFFVVMEHCLKHGLKVKKSFIGQNKSFFGPLELVEKLCPEASDIATSVRNLPELKTAVGRGRAWLYLALMQKKLADYLKVLIDNKHLLSEFYEPEALMMEEEGMVIVGLLVGLNVLDANLCLKGEDLDSQVGVIDFSLYLKDVQDLDGGKEHERITDVLDQKNYVEELNRHLSCTVGDLQTKIDGLEKTNSKLQEELSAATDRICSLQEEQQQLREQNELIRERSEKSVEITKQDTKVELETYKQTRQGLDEMYSDVWKQLKEEKKVRLELEKELELQIGMKTEMEIAMKLLEKDTHEKQDTLVALRQQLEEVKAINLQMFHKAQNAESSLQQKNEAITSFEGKTNQVMSSMKQMEERLQHSERARQGAEERSHKLQQELGGRIGALQLQLSQLHEQCSSLEKELKSEKEQRQALQRELQHEKDTSSLLRMELQQVEGLKKELRELQDEKAELQKICEEQEQALQEMGLHLSQSKLKMEDIKEVNQALKGHAWLKDDEATHCRQCEKEFSISRRKHHCRNCGHIFCNTCSSNELALPSYPKPVRVCDSCHTLLLQRCSSTAS [RUFY1]
HeLa Kyoto [1]; [5]
  thermal stability score: 0.538
HeLa Kyoto [1]; cell cycle stage: mitosis
  thermal stability score: 1.01
HeLa Kyoto [2]; cell cycle stage: G1/S
  melting temperature: 49.5 °C
HeLa Kyoto [2]; cell cycle stage: mitosis
  melting temperature: 49.8 °C
HeLa Kyoto [3]
  solubility change mitosis (log2): -0.0933
HeLa Kyoto [4]
  solubility in G1/S (log2): 0.163

## MADSELQLVEQRIRSFPDFPTPGVVFRDISPVLKDPASFRAAIGLLARHLKATHGGRIDYIAGLDSRGFLFGPSLAQELGLGCVLIRKRGKLPGPTLWASYSLEYGKAELEIQKDALEPGQRVVVVDDLLATGGTMNAACELLGRLQAEVLECVSLVELTSLKGREKLAPVPFFSLLQYE [APRT]
HeLa Kyoto [1]; [5]
  thermal stability score: 3.79
HeLa Kyoto [1]; cell cycle stage: mitosis
  thermal stability score: 2.38
HeLa Kyoto [2]; cell cycle stage: G1/S
  melting temperature: 57.1 °C
HeLa Kyoto [2]; cell cycle stage: mitosis
  melting temperature: 55.8 °C
HeLa Kyoto [3]
  solubility change mitosis (log2): -0.0341
HeLa Kyoto [4]
  solubility in G1/S (log2): 0.361

## MAEAALLLLPEAAAERDAREKLALWDRRPDTTAPLTDRQTDSVLELKAAAENLPVPAELPIEDLCSLTSQSLPIELTSVVPESTEDILLKGFTSLGMEEERIETAQQFFSWFAKLQTQMDQDEGTKYRQMRDYLSGFQEQCDAILNDVNSALQHLESLQKQYLFVSNKTGTLHEACEQLLKEQSELVDLAENIQQKLSYFNELETINTKLNSPTLSVNSDGFIPMLAKLDDCITYISSHPNFKDYPIYLLKFKQCLSKALHLMKTYTVNTLQTLTSQLLKRDPSSVPNADNAFTLFYVKFRAAAPKVRTLIEQIELRSEKIPEYQQLLNDIHQCYLDQRELLLGPSIACTVAELTSQNNRDHCALVRSGCAFMVHVCQDEHQLYNEFFTKPTSKLDELLEKLCVSLYDVFRPLIIHVIHLETLSELCGILKNEVLEDHVQNNAEQLGAFAAGVKQMLEDVQERLVYRTHIYIQTDITGYKPAPGDLAYPDKLVMMEQIAQSLKDEQKKVPSEASFSDVHLEEGESNSLTKSGSTESLNPRPQTTISPADLHGMWYPTVRRTLVCLSKLYRCIDRAVFQGLSQEALSACIQSLLGASESISKNKTQIDGQLFLIKHLLILREQIAPFHTEFTIKEISLDLKKTRDAAFKILNPMTVPRFFRLNSNNALIEFLLEGTPEIREHYLDSKKDVDRHLKSACEQFIQQQTKLFVEQLEEFMTKVSALKTMASQGGPKYTLSQQPWAQPAKVNDLAATAYKTIKTKLPVTLRSMSLYLSNKDTEFILFKPVRNNIQQVFQKFHALLKEEFSPEDIQIIACPSMEQLSLLLLVSK [COG3]
HeLa Kyoto [1]; [5]
  thermal stability score: 0.629
HeLa Kyoto [1]; cell cycle stage: mitosis
  thermal stability score: 1.07
HeLa Kyoto [2]; cell cycle stage: G1/S
  melting temperature: 50.9 °C
HeLa Kyoto [2]; cell cycle stage: mitosis
  melting temperature: 49.7 °C
HeLa Kyoto [3]
  solubility change mitosis (log2): -0.0733
HeLa Kyoto [4]
  solubility in G1/S (log2): 0.235

## MAEEQGRERDSVPKPSVLFLHPDLGVGGAERLVLDAALALQARGCSVKIWTAHYDPGHCFAESRELPVRCAGDWLPRGLGWGGRGAAVCAYVRMVFLALYVLFLADEEFDVVVCDQVSACIPVFRLARRRKKILFYCHFPDLLLTKRDSFLKRLYRAPIDWIEEYTTGMADCILVNSQFTAAVFKETFKSLSHIDPDVLYPSLNVTSFDSVVPEKLDDLVPKGKKFLLLSINRYERKKNLTLALEALVQLRGRLTSQDWERVHLIVAGGYDERVLENVEHYQELKKMVQQSDLGQYVTFLRSFSDKQKISLLHSCTCVLYTPSNEHFGIVPLEAMYMQCPVIAVNSGGPLESIDHSVTGFLCEPDPVHFSEAIEKFIREPSLKATMGLAGRARVKEKFSPEAFTEQLYRYVTKLLV [ALG2]
HeLa Kyoto [1]; [5]
  thermal stability score: 0.227
HeLa Kyoto [1]; cell cycle stage: mitosis
  thermal stability score: 0.342
HeLa Kyoto [2]; cell cycle stage: G1/S
  melting temperature: 51 °C
HeLa Kyoto [2]; cell cycle stage: mitosis
  melting temperature: 51.3 °C
HeLa Kyoto [3]
  solubility change mitosis (log2): -0.229
HeLa Kyoto [4]
  solubility in G1/S (log2): -0.0813
